Experiment [1] concerns the target TfR1 on human erythroleukemia TF-1 cells (human) (UniProt P02786). Briefly: cell-based or functional assay.
Experiment [2] concerns the target TfR1 protein stably expressed on CHO-K1-TfR1 cells (UniProt P02786). Briefly: cell-based or functional assay.

Chain of Tab4, pabinafusp alfa targeting humanized TfR1 (antibody) (VH): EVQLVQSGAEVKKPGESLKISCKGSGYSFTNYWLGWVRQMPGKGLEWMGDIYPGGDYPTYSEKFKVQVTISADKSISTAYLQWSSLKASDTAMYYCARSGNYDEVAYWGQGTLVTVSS
Chain of Tab4, pabinafusp alfa targeting humanized TfR1 (antibody) (VL): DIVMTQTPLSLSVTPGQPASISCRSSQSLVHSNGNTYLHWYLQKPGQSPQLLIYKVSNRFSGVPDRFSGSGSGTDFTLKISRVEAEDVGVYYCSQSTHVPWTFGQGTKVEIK
Chain of TfR1 protein stably expressed on CHO-K1-TfR1 cells (P02786 whole entry): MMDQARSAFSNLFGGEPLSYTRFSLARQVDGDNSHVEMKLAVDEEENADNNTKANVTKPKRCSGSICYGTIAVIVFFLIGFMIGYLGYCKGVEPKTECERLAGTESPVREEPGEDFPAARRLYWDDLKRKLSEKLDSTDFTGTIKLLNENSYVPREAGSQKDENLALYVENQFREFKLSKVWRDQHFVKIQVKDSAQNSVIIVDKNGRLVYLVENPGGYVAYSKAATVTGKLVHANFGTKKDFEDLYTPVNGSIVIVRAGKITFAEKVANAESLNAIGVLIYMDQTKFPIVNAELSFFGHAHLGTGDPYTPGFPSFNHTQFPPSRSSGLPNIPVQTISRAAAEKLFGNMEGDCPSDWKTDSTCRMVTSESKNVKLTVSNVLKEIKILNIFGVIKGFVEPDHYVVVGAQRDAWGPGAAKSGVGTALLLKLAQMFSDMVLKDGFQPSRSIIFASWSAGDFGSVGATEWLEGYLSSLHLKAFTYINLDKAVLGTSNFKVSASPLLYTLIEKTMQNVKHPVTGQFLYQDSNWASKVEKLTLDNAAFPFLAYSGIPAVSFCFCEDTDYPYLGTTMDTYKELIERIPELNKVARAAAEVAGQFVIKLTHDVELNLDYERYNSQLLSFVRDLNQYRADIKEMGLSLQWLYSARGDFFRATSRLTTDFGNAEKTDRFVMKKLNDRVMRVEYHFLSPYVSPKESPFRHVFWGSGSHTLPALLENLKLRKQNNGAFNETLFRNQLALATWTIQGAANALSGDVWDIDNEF
Chain of TfR1 on human erythroleukemia TF-1 cells (human) (P02786 whole entry): as above

As to hIgG isotype control (antibody), in experiment [1], the TF-1 cell internalization, fold (MFI at 37° C. to MFI at 4° C.) came to 1.01 fold; the TF-1 cell internalization, pHrodo label, 4° C. MFI (background value) amounted to 471 MFI; the TF-1 cell internalization, pHrodo label, 37° C. MFI came out at 476 MFI. In experiment [2], the CHO-K1-TfR1 internalization, fold (MFI at 37° C. to MFI at 4° C.) is 1.53 fold; the CHO-K1-TfR1 internalization, pHrodo label, 4° C. MFI (background value) was determined as 464 MFI; the CHO-K1-TfR1 internalization, pHrodo label, 37° C. MFI was found to be 711 MFI.
Turning to “Tab4, pabinafusp alfa targeting humanized TfR1 (antibody)”, in experiment [1], the TF-1 cell internalization, fold (MFI at 37° C. to MFI at 4° C.) stood at 1.83 fold; the TF-1 cell internalization, pHrodo label, 4° C. MFI (background value) came to 712 MFI; the TF-1 cell internalization, pHrodo label, 37° C. MFI was 1300 MFI. For the same substance, in experiment [2], the CHO-K1-TfR1 internalization, fold (MFI at 37° C. to MFI at 4° C.) worked out at 2.36 fold; the CHO-K1-TfR1 internalization, pHrodo label, 4° C. MFI (background value) was 520 MFI; the CHO-K1-TfR1 internalization, pHrodo label, 37° C. MFI is 1230 MFI.
